B1: Mothers against decapentaplegic homolog 4 (Homo sapiens), Q13485 (parent)
chain: MDNMSITNTPTSNDACLSIVHSLMCHRQGGESETFAKRAIESLVKKLKEKKDELDSLITAITTNGAHPSKCVTIQRTLDGRLQVAGRKGFPHVIYARLWRWPDLHKNELKHVKYCQYAFDLKCDSVCVNPYHYERVVSPGIDLSGLTLQSNAPSSMMVKDEYVHDFEGQPSLSTEGHSIQTIQHPPSNRASTETYSTPALLAPSESNATSTANFPNIPVASTSQPASILGGSHSEGLLQIASGPQPGQQQNGFTGQPATYHHNSTTTWTGSRTAPYTPNLPHHQNGHLQHHPPMPPHPGHYWPVHNELAFQPPISNHPAPEYWCSIAYFEMDVQVGETFKVPSSCPIVTVDGYVDPSGGDRFCLGQLSNVHRTEAIERARLHIGKGVQLECKGEGDVWVRCLSDHAVFVQSYYLDREAGRAPGDAVHKIYPSAYIKVFDLRQCHRQMQQQAATAQAAAAAQAAAVAGNIPGPGSVGGIAPAISLSAAAGIGVDDLRRLCILRMSFVKGWGPDYPRQSIKETPCWIEIHLHRALQLLDEVLHTMPIADPQPLD
partner: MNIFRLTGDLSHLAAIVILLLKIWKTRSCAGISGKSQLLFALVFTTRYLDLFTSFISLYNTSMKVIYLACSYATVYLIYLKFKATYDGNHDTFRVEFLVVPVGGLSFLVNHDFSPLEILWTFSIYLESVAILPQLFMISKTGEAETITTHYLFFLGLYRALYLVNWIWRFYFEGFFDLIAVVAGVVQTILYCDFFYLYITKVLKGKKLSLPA
B2: Mothers against decapentaplegic homolog 4 (Homo sapiens), Q13485 (parent)
chain: B1 chain
partner: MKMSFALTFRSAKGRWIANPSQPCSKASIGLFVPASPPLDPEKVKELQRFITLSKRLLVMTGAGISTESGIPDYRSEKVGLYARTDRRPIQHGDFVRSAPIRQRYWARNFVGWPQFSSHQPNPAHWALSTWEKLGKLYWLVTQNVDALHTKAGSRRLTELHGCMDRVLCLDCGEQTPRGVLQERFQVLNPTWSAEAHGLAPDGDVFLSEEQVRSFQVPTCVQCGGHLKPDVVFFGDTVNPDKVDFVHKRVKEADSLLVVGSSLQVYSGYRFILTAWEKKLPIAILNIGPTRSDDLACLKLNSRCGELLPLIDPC
B3: Mothers against decapentaplegic homolog 4 (Homo sapiens), Q13485 (parent)
chain: B1 chain
partner: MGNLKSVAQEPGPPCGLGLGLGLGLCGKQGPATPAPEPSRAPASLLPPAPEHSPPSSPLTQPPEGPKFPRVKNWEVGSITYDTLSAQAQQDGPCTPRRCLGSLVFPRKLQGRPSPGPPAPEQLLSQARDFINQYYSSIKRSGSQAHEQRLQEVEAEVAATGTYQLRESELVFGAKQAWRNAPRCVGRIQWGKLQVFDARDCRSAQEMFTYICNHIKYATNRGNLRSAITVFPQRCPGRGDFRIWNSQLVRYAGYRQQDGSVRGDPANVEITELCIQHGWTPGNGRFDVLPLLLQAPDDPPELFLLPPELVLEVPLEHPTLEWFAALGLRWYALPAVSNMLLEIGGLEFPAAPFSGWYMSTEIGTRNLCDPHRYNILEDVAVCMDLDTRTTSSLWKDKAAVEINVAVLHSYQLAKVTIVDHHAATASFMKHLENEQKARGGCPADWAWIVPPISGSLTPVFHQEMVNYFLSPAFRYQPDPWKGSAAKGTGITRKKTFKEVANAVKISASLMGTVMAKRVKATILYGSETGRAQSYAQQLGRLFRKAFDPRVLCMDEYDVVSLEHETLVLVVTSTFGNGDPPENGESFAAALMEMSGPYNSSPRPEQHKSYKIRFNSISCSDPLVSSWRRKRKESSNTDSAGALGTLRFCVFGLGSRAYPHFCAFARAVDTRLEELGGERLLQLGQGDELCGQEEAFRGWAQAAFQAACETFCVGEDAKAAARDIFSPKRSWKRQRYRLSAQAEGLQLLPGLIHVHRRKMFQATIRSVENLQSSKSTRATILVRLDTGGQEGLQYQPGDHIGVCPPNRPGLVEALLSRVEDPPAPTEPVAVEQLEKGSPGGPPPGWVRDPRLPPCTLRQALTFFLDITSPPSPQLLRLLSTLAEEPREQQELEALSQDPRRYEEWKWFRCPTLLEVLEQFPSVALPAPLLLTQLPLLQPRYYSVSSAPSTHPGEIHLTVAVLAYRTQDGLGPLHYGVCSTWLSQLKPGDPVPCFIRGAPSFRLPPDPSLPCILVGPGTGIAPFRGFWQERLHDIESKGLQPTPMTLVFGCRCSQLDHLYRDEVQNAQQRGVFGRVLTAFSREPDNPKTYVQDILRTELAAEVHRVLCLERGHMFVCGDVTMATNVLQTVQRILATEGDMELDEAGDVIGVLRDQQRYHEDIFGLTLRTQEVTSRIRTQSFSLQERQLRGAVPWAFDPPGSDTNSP
B4: Mothers against decapentaplegic homolog 4 (Homo sapiens), Q13485 (parent)
chain: B1 chain
partner: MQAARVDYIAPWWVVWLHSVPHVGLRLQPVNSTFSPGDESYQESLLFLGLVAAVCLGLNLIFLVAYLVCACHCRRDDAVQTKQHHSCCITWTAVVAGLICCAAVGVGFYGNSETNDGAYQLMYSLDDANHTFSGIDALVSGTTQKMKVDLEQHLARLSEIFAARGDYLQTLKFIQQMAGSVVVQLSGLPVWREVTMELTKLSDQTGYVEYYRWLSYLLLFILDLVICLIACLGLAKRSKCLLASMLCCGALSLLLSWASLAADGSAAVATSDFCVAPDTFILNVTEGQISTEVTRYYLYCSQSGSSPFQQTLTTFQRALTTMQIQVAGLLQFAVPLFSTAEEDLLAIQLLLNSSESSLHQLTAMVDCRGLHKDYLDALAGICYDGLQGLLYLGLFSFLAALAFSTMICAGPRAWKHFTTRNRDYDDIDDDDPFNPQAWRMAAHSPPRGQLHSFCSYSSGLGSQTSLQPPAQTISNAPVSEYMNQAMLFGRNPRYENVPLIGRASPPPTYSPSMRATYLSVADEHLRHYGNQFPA
B5: Mothers against decapentaplegic homolog 4 (Homo sapiens), Q13485 (parent)
chain: B1 chain
partner: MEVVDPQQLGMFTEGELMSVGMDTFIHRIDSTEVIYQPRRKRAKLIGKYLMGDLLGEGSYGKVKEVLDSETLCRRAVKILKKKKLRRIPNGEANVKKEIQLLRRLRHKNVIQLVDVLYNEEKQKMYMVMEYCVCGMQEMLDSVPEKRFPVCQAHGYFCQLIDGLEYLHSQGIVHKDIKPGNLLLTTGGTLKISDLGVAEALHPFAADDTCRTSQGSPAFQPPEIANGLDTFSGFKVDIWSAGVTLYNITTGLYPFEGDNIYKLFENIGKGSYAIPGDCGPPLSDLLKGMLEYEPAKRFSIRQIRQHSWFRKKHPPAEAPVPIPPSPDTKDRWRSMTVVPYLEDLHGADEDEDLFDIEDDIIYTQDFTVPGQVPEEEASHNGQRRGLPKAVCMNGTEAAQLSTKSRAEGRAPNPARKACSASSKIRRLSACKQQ
B6: Mothers against decapentaplegic homolog 4 (Homo sapiens), Q13485 (parent)
chain: B1 chain
partner: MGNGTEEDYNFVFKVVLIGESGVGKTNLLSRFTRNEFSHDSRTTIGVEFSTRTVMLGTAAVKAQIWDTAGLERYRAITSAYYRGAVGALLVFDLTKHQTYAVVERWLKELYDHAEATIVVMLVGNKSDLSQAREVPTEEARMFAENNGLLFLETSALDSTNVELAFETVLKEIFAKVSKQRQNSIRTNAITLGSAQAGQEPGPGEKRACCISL
B7: Mothers against decapentaplegic homolog 4 (Homo sapiens), Q13485 (parent)
chain: B1 chain
partner: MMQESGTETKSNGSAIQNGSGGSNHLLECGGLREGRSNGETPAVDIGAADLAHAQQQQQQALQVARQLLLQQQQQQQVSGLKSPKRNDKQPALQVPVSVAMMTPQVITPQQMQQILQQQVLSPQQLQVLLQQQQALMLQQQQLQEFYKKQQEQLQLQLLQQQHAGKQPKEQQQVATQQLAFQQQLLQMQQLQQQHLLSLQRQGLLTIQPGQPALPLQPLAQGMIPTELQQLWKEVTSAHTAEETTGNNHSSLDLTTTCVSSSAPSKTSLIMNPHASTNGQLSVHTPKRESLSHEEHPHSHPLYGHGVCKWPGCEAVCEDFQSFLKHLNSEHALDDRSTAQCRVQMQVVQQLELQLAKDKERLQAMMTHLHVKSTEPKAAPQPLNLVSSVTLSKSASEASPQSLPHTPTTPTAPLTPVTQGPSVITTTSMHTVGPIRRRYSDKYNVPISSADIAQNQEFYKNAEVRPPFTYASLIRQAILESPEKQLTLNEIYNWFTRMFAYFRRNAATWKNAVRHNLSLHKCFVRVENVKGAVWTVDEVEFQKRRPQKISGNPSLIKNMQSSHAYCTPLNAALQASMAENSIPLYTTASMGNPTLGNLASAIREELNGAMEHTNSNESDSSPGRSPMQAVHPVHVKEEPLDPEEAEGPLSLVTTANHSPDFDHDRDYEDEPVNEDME
B8: Speckle-type POZ protein (Homo sapiens), O43791 (parent)
chain: MSRVPSPPPPAEMSSGPVAESWCYTQIKVVKFSYMWTINNFSFCREEMGEVIKSSTFSSGANDKLKWCLRVNPKGLDEESKDYLSLYLLLVSCPKSEVRAKFKFSILNAKGEETKAMESQRAYRFVQGKDWGFKKFIRRDFLLDEANGLLPDDKLTLFCEVSVVQDSVNISGQNTMNMVKVPECRLADELGGLWENSRFTDCCLCVAGQEFQAHKAILAARSPVFSAMFEHEMEESKKNRVEINDVEPEVFKEMMCFIYTGKAPNLDKMADDLLAAADKYALERLKVMCEDALCSNLSVENAAEILILADLHSADQLKTQAVDFINYHASDVLETSGWKSMVVSHPHLVAEAYRSLASAQCPFLGPPRKRLKQS
partner: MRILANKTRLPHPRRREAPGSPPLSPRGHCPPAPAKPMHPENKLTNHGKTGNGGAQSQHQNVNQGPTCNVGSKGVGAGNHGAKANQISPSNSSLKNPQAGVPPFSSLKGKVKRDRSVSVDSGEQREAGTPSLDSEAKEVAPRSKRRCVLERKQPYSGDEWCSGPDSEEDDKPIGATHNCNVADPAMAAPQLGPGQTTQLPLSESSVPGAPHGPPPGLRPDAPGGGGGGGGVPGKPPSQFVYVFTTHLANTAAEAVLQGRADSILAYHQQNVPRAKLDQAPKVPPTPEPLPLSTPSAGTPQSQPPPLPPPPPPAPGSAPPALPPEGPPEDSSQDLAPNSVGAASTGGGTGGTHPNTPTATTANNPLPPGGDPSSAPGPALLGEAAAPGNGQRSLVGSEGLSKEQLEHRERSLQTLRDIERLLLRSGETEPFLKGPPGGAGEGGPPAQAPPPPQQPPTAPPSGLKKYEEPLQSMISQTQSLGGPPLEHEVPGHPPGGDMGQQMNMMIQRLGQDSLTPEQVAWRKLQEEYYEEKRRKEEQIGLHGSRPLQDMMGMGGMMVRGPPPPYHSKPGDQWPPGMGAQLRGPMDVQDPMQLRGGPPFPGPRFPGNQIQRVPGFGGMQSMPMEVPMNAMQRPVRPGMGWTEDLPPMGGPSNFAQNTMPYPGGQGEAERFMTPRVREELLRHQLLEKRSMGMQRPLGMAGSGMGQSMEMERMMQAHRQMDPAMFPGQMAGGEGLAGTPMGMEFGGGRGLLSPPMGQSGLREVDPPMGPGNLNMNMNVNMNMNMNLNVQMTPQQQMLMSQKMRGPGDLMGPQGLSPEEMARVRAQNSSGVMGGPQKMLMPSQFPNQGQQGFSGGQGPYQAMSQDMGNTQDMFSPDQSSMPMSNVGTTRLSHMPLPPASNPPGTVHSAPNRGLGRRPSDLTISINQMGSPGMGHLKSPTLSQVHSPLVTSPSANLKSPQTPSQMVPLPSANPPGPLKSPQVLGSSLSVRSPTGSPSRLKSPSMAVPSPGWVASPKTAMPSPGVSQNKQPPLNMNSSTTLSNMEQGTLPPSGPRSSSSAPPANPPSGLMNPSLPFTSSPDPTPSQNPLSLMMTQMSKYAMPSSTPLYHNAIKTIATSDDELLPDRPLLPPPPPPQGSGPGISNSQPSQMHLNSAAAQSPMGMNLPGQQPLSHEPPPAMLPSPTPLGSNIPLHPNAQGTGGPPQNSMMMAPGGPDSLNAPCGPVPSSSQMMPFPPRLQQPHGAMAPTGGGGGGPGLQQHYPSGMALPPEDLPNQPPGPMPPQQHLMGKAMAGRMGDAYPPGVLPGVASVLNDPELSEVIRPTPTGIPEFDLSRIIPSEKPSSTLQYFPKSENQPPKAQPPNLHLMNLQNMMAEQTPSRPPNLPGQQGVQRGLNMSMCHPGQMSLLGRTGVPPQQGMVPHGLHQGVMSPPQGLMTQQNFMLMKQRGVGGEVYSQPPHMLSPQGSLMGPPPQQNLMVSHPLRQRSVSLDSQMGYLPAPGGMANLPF

Variants of: B1
Details: with erd22_human KDELR2, P33947

Row | effect of a mutation on the interaction | Variant
1 | with no effect | R361C

Variants of: B1
Details: with erd22_human KDELR2, P33947
Remark: another data set of the same source

Row | effect of a mutation on the interaction | Variant
2 | with no effect | G386D

Variants of: B2
Details: with sir4_human SIRT4, Q9Y6E7

Row | effect of a mutation on the interaction | Variant
3 | with no effect | G386D

Variants of: B3
Details: with nos3_human NOS3, P29474

Row | effect of a mutation on the interaction | Variant
4 | with no effect | G386D

Variants of: B3
Details: with nos3_human NOS3, P29474
Remark: another data set of the same source

Row | effect of a mutation on the interaction | Variant
5 | increasing interaction strength | G386D

Variants of: B3
Details: with nos3_human NOS3, P29474
Remark: another data set of the same source

Row | effect of a mutation on the interaction | Variant
6 | with no effect | R361H

Variants of: B4
Details: with ttyh2_human TTYH2, Q9BSA4

Row | effect of a mutation on the interaction | Variant
7 | with no effect | G386D

Variants of: B5
Details: with stk11_human STK11, Q15831

Row | effect of a mutation on the interaction | Variant
8 | with no effect | G386D

Variants of: B6
Details: with rab25_human RAB25, P57735

Row | effect of a mutation on the interaction | Variant
9 | with no effect | G386D

Variants of: B7
Details: with foxp1_human FOXP1, Q9H334

Row | effect of a mutation on the interaction | Variant
10 | with no effect | G386D

Variants of: B8
Details: with bcl9l_human BCL9L

Row | effect of a mutation on the interaction | Variant
11 | with no effect | Y87C
